According to the DeepSol protein solubility set:

experiment: soluble on expression in E. coli; label from the status in PepcDB or PDB records

Row | Sequence | soluble on expression in E. coli
1 | MDGAGAEEVLAPLRLAVRQQGDLVRKLKEDKAPQVDVDKAVAELKARKRVLEAKELALQPKDDIVDRAKMEDTLKRRFFYDQAFAIYGGVSGLYDFGPVGCALKNNIIQTWRQHFIQEEQILEIDCTMLTPEPVLKTSGHVDKFADFMVKDVKNGECFRADHLLKAHLQKLMSDKKCSVEKKSEMESVLAQLDNYGQQELADLFVNYNVKSPITGNDLSPPVSFNLMFKTFIGPGGNMPGYLRPETAQGIFLNFKRLLEFNQGKLPFAAAQIGNSFRNEISPRSGLIRVREFTMAEIEHFVDPSEKDHPKFQNVADLHLYLYSAKAQVSGQSARKMRLGDAVEQGVINNTVLGYFIGRIYLYLTKVGISPDKLRFRQHMENEMAHYACDCWDAESKTSYGWIEIVGCADRSCYDLSCHARATKVPLVAEKPLKEPKTVNVVQFEPSKGAIGKAYKKDAKLVMEYLAICDECYITEMEMLLNEKGEFTIETEGKTFQLTKDMINVKRFQKTLYVEEVVPNVIEPSFGLGRIMYTVFEHTFHVREGDEQRTFFSFPAVVAPFKCSVLPLSQNQEFMPFVKELSEALTRHGVSHKVDDSSGSIGRRYARTDEIGVAFGVTIDFDTVNKTPHTATLRDRDSMRQIRAEISELPSIVQDLANGNITWADVEARYPLFEGQETGKKETIEELEHHHHHH | soluble
2 | MDGSMGEGGGQILRTAVALAAVLGRPLRIVNIRAKRRPPGLRPQHLTAVRAVAAISGGRLRGAEVGSTSLEFTPGRVRGGRYRFDVGTAGSVALIIQALAPLLAYSDSPVEVELTGGTDVPMAPTIDYMREVFASILAMLGYEIEIRVLRRGHYPRGGGRVVVRVPDPPGGFRARSFVERGPLKGVYVRSHAVKLPGSIAERQARSAASLVRERLGVDPIVEIEAYKPHRDPHLGPGTGVLVWAVFGETVMGGDSIGKKGKPAEVVGREAAESLLEDMATGAALDRHMSDMAPVYLALAGGVSTVFGARLTGHASTILELLRIMVDGFEYRILEGGLERPFKAELRGAGVSPR | soluble
3 | MDHGVVLLSDDQGLQWRQASSVPLSTPLTGVSFVDAKRGWAVGHWGAILITTDGGESWQVQRLATEEDRPLFAVHFFNARQGVAVGLWSLVLTTEDGGQTWSEQPLQAPPGAKRADLNLMGLFADSRGTLYATAEHGQVLHSEDQGKNWRYLDTGYEGTLWAGAVLADGRLLLGGQRGTLLQGSADGKGFHRVPTQSKGSVTCVAVAGSRVLAVGLDGLSVQSSDGGHSFQETQTADGLSLTAALFNAEGVPVLFSRRGVMPYQELEHHHHHH | not soluble
4 | MDIDECESGAHQCSEAQTCVNFHGGYRCVDTNRCVEPYIQVSENRCLCPASNPLCRE | soluble
5 | MDINGGGATLPQALYQTSGVLTAGFAQYIGVGSGNGKAAFLNNDYTKFQAGVTNKNVHWAGSDSKLSATELSTYASAKQPTWGKLIQVPSVGTSVAIPFNKSGSAAVNLSVQELCGVFSGRINTWDGISGSGRTGPIVVVYRSESSGTTELFTRFLNAKCNAETGNFAVTTTFGTSFSGGLPAGAVAATGSQGVMTALAAGDGRITYMSPDFAAPTLAGLDDATKVARVGKNVATNTQGVSPAAANVSAAIGAVPVPAAADRSNPDAWVPVFGPDNTAGVQPYPTSGYPILGFTNLIFSQCYADATQTTQVRDFFTKHYGASNNNDAAITANAFVPLPTAWKATVRASFLTASNALSIGNTNVCNGIGRPLLEAAHHHHHH | soluble
6 | MDIRKEFEHLQYFFDSYYNQTFYNAQLEEQFLRFLADEPEWVVRALKLEVEKLERIHHRRDTETWAKIEELVHENSMRYFSFEDGKTFIKVASLLLKDID | not soluble
7 | MDKRYLESDVFEAFQERLSYLFNEFDYIYVSFSGGKDSGLLLNLVLDYKRKNNISSKIGVFHQDFEAQYSLTTEYVEKVFEDNIEDIEPYWVCLPMATRTAVGNYEMYWYPWDDEKEELWVREMPVKEYIINQKNNPFTYYKYKMRQESLAKQFGRWIRDIHEGAKVVCLLGTRAAESLQRYCSIVNKQHGYKGKCWITKEFKNVWTASPIYDWEIEDIWLAHYKFDYDYNKIYDLFYK | not soluble
8 | MDKTTHDKGLEIRKAVLGEAYVENALKNADDFNQPFQELVTEYCWGAIWGRDGLPKKTRSMLNLAMIAILNRPHELRAHIKGALTNGVTKDEIREIFMQVACYAGIPAGVDSFRIAREVFAELDKA | not soluble
9 | MDLFADAPLTLPDADLRYLPHWLDAPLASAWLLRLEQETPWEQPILRIHGEEHPTPRLVAWYGDPDAAYRYSGQVHRPLPWTALLGEIRERVEREVGQRVNGVLLNYYRDGQDSMGWHSDDEPELRRDPLVASLSLGGSRRFDLRRKGQTRIAHSLELTHGSLLVMRGATQHHWQHQVAKTRRSCMPRLNLTFRLVYPQPLEHHHHHH | soluble
10 | MDLLVVVPHPDDESFGAGGALLLAKEAGLKTGVLTLTRGEAGRTLGLCPPKELPQVRVEELKRAAAVLQVDYLEVLDYPNALPEGAQGERGPATGRGLADHPEAVEAIRTRLLRLRPRFVLTFPPDGINGHPDHVAASRYAREAAQGLAQVVYLVRPDGPWPVTHRLRLPERVLARKLQAIAQHKTQALSVLKFLEMFPERLWTETFHLPGASGLREGPWW | soluble
11 | MDLSPLDVRYQEFPRAFRGYHRGAVREYLARVAEAMEALIRENEVLKERLRALEEENARLKEAEGELKRAVVAAERIARELKAQAEREAELLRKEAQAAKERLLQEAAQELKRLRAEIERARQEKALFLGQVRALFEGYLEALKRLEKTP | soluble
12 | MDMELTYIYHSGFALSGDGFTVIMDYYRDSEDGQAQADLNRLMDGTFSNQEAGMPEGTVHSELLRRPGKLYVLASHFHPDHFNKEVLQWREQRPDIIYIFSKDILRHRRAQKEDAVWLKKGEEYKDETLSVRAFGSTDVGVSFLLQTGGKKIFHAGDLNNWHWMDESTEAEWKGAEKNFLHELDDLYAYTPEVDVAMFPVDPRLGKEYMRGAGQFVTKIKTHIFVPMHFTPEYAKANAFRDFAEAHGVRFVSLTHRGQKIEIE | soluble
13 | MDNELTSRPDSIMDTEPTTLPDSAMDTKPTNLPDFPSTSQEPVSRRTRSRTLSDNSNAVWKRERRSRETSQESESRLRMDWERKKEKRASMSEEEKAEMKYKKRVWMKKKRNEVAKTHDTSSVANPNYLGSMRCVCKNCNARFFQGIHFFKV | not soluble
14 | MDNFENLSTKDSFPEHFRRAVRGIFPDSQLPDEFFLVVYRDGKFERSLQPTATFAGRKAPVVIIPQWKEKHTLEIGNYRKVVDEEFYQIGGKMIYAGRDIFIEDVPGLYRNIDMVFLDGEKECIYRDGFLMMEEKILKIEEPVDVVDGIVITRHRMGSKEIDDTILFRWNNFVLTASGFLVDIKGKWSWKVSNAPVEFSFQGDIFYVLDVCGFLRSYNLKTRQLLWEKKFEGAWGLDSSKDRVFLGAGDEVLVLNAQDGETIERMEADDFAVWKGRLLVYKDGKVDGEDMEGFFIRNFGMPLFVSGKRVVMFGTEKKEFEEVEKVRLFDWGTVIKAGDELWLIRRD | not soluble
15 | MDNKSEKVTVNKEELRKRLTPVQYQVTQEAGTERPFTGCYNKHYEKGVYQCIVCHQDLFSSETKYDSGCGWPAFNDVLDKGKVTLHRDASIPGGNILLLIAHPERIRTEVRCARCNAHMGHVFEDGPKPTRKRYCINSASIEFVNADPATSSPPVATPTAAPIAQQLEHHHHHH | soluble
16 | MDNVSNVRTGGCHCGAVRFEVTLSDGFDSIRRCTCSYCRMRGAVVAMAEMGGIKILQGEEVLTTYRFHTRAAQHFFCSRCGIYTHHQRRSNQNLYAVNVACLDGVSPFDFTEVPVMDGINHTNDTGQPTRRAGTLRFIASE | not soluble
17 | MDPAKNEYGMGSTLTTLAYEKFAKAAKYNTQQNDLAAPTAQLDIAVSLSGFKEGDSNYPINPILKLTNNSTQTIPGGTRIEFLVPTSTSDTITDQSGMGLKVVESGGNQNSDGIAGEKDFHKAAFTLPTWKAWAPGSDVEVAMTYYLPAAGVPSGIRIISGTQTAGLKAEFPTLPEAVLEHHHHHH | soluble
18 | MDPELLRQRTAFQKHAATTMAVQNKPTTAPNSHTTYSSEAAKAKKKKSSGPAQNLSKLPDFNNSVSNANALSNATNFSTMAKIVDYMKKRHLNNQQWPLTLQEILDELQIFDLSKRSLAFLQEALPNNPRLIMESEKFAFRPPYKIKGKTSLVAVARKHYQDGKGGILVSDLAECVANYDALLQQVSSEVIVVPTQVNKKKDRVVFYNDKEFTFPELEDDFKALWRHVSVDHLDEKKIEEYLQKKGLDAMKDLTPKVRMQAPLKRKAAKRRFNQKVQNEHMDGVLEDYE | soluble
19 | MDPTQHRKAARPCDARRVLVLQGGGALGAYQAGAYQALCHHDFEPQWLAGISIGAINAAIIAGNPREQRVEKLKQFWEMASSPVPWQPLLRDDHVHSLFNETSAAMIATFGVPGFFTPRFPPTHLLPSGKPSNLSYYDTAPLRSTLERLVDFDRLNHNGIRLSVGAVNIATGNFVYFDTTKQIIGPEHIMASAALPPGFPAIEIDGEHYWDGGVASNTPLDYVL | not soluble
20 | MDPVFSRLLETANSVILGKEQPIRLCICCLLARGHLLIEDVPGVGKTTLARTLAALLGLKYQRIQFTSDLLPADVLGSSIYDATTHGFRFHPGPVFNPMVLADEINRSTPRAQSALLEAMEERQVTVEGETRPLPEPFFVIATQNPNTQIGTFPLPESQLDRFLMRIELGYPDPRAERELLMGEERYALLPQLPVCLPAERLLALQSRVRDVHASSALLDYVQALLHFSRESPLYQNGLSPRAGLALLHAAKAWALMDGRAAVLPEDIQAVLPPVAGHRLKLASGGGGMAETVAPLLRDVAIPLEHHHHHH | not soluble
21 | MDQKKDPSNNLTERRVSKVQRPNKKKVRNQVESLSRNLERNKEGQLLQTVSKGHLEADSGHSLGREKENGELGIRSIFYDKDWNPRGTAPSHYRNIPYNPATFKRRTEVQARLGNLENIKIPK | not soluble
22 | MDQKSSSPQPAAQAPETKQAFPRKFVLAALEQSSDDAGWANLGNFGNYLNKLQPDFDSRLYGYKKLSDLVKARTDLFVTEERQVPGSTQKALYLRAKLEHHHHHH | soluble
23 | MDQLSAMRAFVRVVETGSFSATGKEMNTSQTTISKKVAALENQIGVKLLTRSSRDHSLTPAGSDYYQTCVNILSELDEVEAKVRSKATLPQGSIRITAPVAFGRFLLAPIVAEFFQHYPDIKIDLLLNDKHVNLISEGIDVAIRAKNLEDSSLVARHLLDNPMYLFASPDYLEQYGEPKHPNELSTHNCLIYSGLQDAHIWNFNHGEKEYSVPVKGNFQSDNGDVLLDVALTGVGIVSLPIWMAKAHLTSGHLRQIMTKYSGQQLPINAIYPQRRYTPLKVRCFIDFLKQKLSE | not soluble
24 | MDRFKVVVTDYEFQTLAPEQEVLSSLNVEFVATQCRTEEEVISACRDADAIINQYAPISAEVIAQLEKCKIISRYGVGVNTVDVDAATEKGIIVANVTDYSIDEVSDHALALLLSLARKIVKLNHEVKSGTWNFNVGKPIYRLRGRTLGLVGLGRIPQALAKKAQAFGLRVIAYDPYVPAKVADELNVQLLGLNDVFRQSDYISVHAPLTKETKGMISDEQFNLAKKELIIVNTARGPVIDESALIRALQEGKISGAGLDVTECEPIQPDNPLLKMENVVITPHVAWYSEESEKELKRKTAQNVADVLSGYYPTYLVNHNVKEKMRLKEKGLYV | soluble
25 | MDRFNEYRIMWVLVLFDLPTETKKEKKAYADFRKNLQKDGFTMFQFSIYVRHCGSSENAAVHIKRVKSFLPEFGHVGIMCITDKQFGDIELFYGKKVQDVNTPGQQLELFLEHHHHHH | not soluble
